Measurements from US20240092876A1 (priority 2020, published 2024).
pKd: −log10 of the molar value.

Substance	pKd (N1)	koff (N1) [s⁻¹]	kon (N1) [M⁻¹ s⁻¹]	pKd (N9)	koff (N9) [s⁻¹]	kon (N9) [M⁻¹ s⁻¹]
1G01 (antibody)	9.06	4.79e-05	55100	> 12.00	< 1e-07	106000
FNI9 (antibody)	10.79			> 12.00		
FNI3 (antibody)	> 12.00	< 1e-07	39500	11.54	9.45e-07	330000
